Where a chain is given by its changes, count along the chain named. Names may count otherwise.

To fix the notation:
T1: Human LRRC15 Protein, His Tag (Acro Biosystems) (human, UniProt Q8TF66 22-538, limits assumed)
T1 construct: Bought protein with His tag
T1 sequence (looked up): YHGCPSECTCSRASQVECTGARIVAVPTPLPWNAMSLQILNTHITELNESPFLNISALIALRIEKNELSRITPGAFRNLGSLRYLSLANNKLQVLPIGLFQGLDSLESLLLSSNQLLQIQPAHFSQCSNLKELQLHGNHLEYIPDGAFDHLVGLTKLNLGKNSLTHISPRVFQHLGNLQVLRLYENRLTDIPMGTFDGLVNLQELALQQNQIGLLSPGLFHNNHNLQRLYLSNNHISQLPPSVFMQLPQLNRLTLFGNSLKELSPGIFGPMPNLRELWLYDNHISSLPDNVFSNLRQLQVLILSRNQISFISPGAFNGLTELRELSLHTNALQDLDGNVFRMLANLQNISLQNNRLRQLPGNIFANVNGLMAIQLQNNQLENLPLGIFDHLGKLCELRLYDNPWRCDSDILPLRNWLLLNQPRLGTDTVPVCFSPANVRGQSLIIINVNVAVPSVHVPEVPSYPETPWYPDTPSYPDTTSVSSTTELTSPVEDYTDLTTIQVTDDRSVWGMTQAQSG

T2: Human LRRC15 Protein, His Tag (Acro Biosystems) (human, UniProt Q8TF66 22-538, limits assumed)
T2 construct: not shown: His tag
T2 sequence (looked up): T1 sequence (looked up)

B1: MYT8387 (antibody, V domains shown)
VH: EVQLVESGGGLVQPGGSLRLSCTASGLDFRRTNHICWVRQAPGKGLEWVGCIYIADVVHYYASWAKGRFTFSRDTSKNTVYLQMNSLRAEDTAVYYCARGADGGFVYGMDLWGQGTLVTVSS
VL: EIVMTQSPSTLSASVGDRVIITCQASQSIGNYLSWYQQKPGKAPKRLIYSASTLPSGVPSRFSGSGSGAEFTLTISSLQPDDFATYYCQNNYWLAGYGHPFGQGTKLTVL
notes: hu15G7 VH Y34H; human Fc
B2: MYT8394 (antibody, V domains shown)
VH: B1 VH with F105H
VL: B1 VL
notes: hu15G7 VH Y34H, F105H; human Fc
B3: MYT8392 (antibody, V domains shown)
VH: B1 VH with Y53H
VL: B1 VL
notes: hu15G7 VH Y34H, Y53H; human Fc
B4: MYT8400 (antibody, V domains shown)
VH: B1 VH with H34Y, G104H, V106H
VL: B1 VL
notes: hu15G7 VH G104H, V106H; human Fc
B5: MYT8389 (antibody, V domains shown)
VH: B1 VH with H34Y, G104H
VL: B1 VL
notes: hu15G7 VH G104H; human Fc
B6: MYT8390 (antibody, V domains shown)
VH: B1 VH with H34Y, F105H
VL: B1 VL
notes: hu15G7 VH F105H; human Fc
B7: MYT8395 (antibody, V domains shown)
VH: B1 VH with V106H
VL: B1 VL
notes: hu15G7 VH Y34H, V106H; human Fc
B8: MYT8388 (antibody, V domains shown)
VH: B1 VH with H34Y, Y53H
VL: B1 VL
notes: hu15G7 VH Y53H; human Fc
B9: MYT8398 (antibody, V domains shown)
VH: B1 VH with H34Y, Y53H, V106H
VL: B1 VL
notes: hu15G7 VH Y53H, V106H; human Fc
B10: MYT8399 (antibody, V domains shown)
VH: B1 VH with H34Y, G104H, F105H
VL: B1 VL
notes: hu15G7 VH G104H, F105H; human Fc
B11: MYT8397 (antibody, V domains shown)
VH: B1 VH with H34Y, Y53H, F105H
VL: B1 VL
notes: hu15G7 VH Y53H, F105H; human Fc
B12: MYT9688 (antibody, V domains shown)
VH: EVQLVESGGGLVQPGGSLRLSCTASGFSFESSHWICWVRQAPGKGLEWVGCIYAGSIGSTYYASWAKGRFTISRDTSKNTVYLQMNSLRAEDTAVYYCARAPNDIYNYYFNLWGQGTLVTVSS
VL: EIVMTQSPSTLSASVGDRVIITCQASENIYNYLAWYQQKPGKAPKLLIYYASTLASGVPSRFSGSGSGAEFTLTISSLQPDDFATYYCQSGYVSKSSTFGQGTKLTVL
notes: also called hu29F1 VH S30E
B13: MYT9705 (antibody, V domains shown)
VH: B12 VH with E30S, Y61E
VL: B12 VL
notes: also called hu29F1 VH Y61E
B14: MYT9703 (antibody, V domains shown)
VH: B12 VH with E30S, S59E
VL: B12 VL
notes: Humanized 29F1 VH glutamate variant; also called hu29F1 VH S59E
B15: MYT9701 (antibody, V domains shown)
VH: B12 VH with E30S, I57E
VL: B12 VL
notes: also called hu29F1 VH I57E
B16: MYT9696 (antibody, V domains shown)
VH: B12 VH with E30S, I52E
VL: B12 VL
notes: also called hu29F1 VH I52E
B17: MYT9712 (antibody, V domains shown)
VH: B12 VH with E30S, G68E
VL: B12 VL
notes: also called hu29F1 VH G68E
B18: MYT9704 (antibody, V domains shown)
VH: B12 VH with E30S, T60E
VL: B12 VL
notes: also called hu29F1 VH T60E
B19: MYT9690 (antibody, V domains shown)
VH: B12 VH with E30S, S32E
VL: B12 VL
notes: also called hu29F1 VH S32E
B20: MYT9689 (antibody, V domains shown)
VH: B12 VH with E30S, S31E
VL: B12 VL
notes: also called hu29F1 VH S31E
B21: MYT9710 (antibody, V domains shown)
VH: B12 VH with E30S, A66E
VL: B12 VL
notes: also called hu29F1 VH A66E
B22: MYT9706 (antibody, V domains shown)
VH: B12 VH with E30S, Y62E
VL: B12 VL
notes: also called hu29F1 VH Y62E
B23: MYT9708 (antibody, V domains shown)
VH: B12 VH with E30S, S64E
VL: B12 VL
notes: also called hu29F1 VH S64E
B24: MYT9702 (antibody, V domains shown)
VH: B12 VH with E30S, G58E
VL: B12 VL
notes: also called hu29F1 VH G58E
B25: MYT9699 (antibody, V domains shown)
VH: B12 VH with E30S, G55E
VL: B12 VL
notes: also called hu29F1 VH G55E
B26: MYT9714 (antibody, V domains shown)
VH: B12 VH with E30S, R100E
VL: B12 VL
notes: also called hu29F1 VH R100E
B27: MYT9691 (antibody, V domains shown)
VH: B12 VH with E30S, H33E
VL: B12 VL
notes: also called hu29F1 VH H33E
B28: MYT9707 (antibody, V domains shown)
VH: B12 VH with E30S, A63E
VL: B12 VL
notes: also called hu29F1 VH A63E
B29: MYT9711 (antibody, V domains shown)
VH: B12 VH with E30S, K67E
VL: B12 VL
notes: also called hu29F1 VH K67E
B30: MYT9713 (antibody, V domains shown)
VH: B12 VH with E30S, A99E
VL: B12 VL
notes: also called hu29F1 VH A99E
B31: MYT9693 (antibody, V domains shown)
VH: B12 VH with E30S, I35E
VL: B12 VL
notes: also called hu29F1 VH I35E

For one test, the target named is T1, Human LRRC15 Protein, His Tag (Acro …). Nature of the test: BLI; dissociation pH 7.4 black, pH 5.4 grey [D00009 FIG. 1G].
With B1, the binding result is recorded as “binds”. Turning to B2, the binding result is given as “no binding (tested: 50 nM LRRC15)”.

In the case of B3, the binding result is listed as “no binding (tested: 50 nM LRRC15)”. With B4, the binding result is “binds”. Consider B5, for which the binding result is reported as “binds”. For B6, the binding result was “binds”. Consider B7, for which the binding result is “no binding (tested: 50 nM LRRC15)”. As to B8, the binding result is given as “binds”. Consider B9, for which the binding result was “no binding (tested: 50 nM LRRC15)”.

Consider B10, for which the binding result was “binds”. For the molecule B11, the binding result is “no binding (tested: 50 nM LRRC15)”.

A further test addresses T2, Human LRRC15 Protein, His Tag (Acro …). Nature of the test: BLI; dissociation pH 7.4 black, pH 5.4 grey [1/2); D00025 FIG. 6B (1/2]. The method, then:
Desirable mutations were transferred to a humanized framework (humanized, MYT 8387-8411). After allowing for four days of protein expression, cell culture supernatants were collected, quantified by SDS-PAGE analysis, and the pH dependence of the variant was evaluated using biolayer interferometry (BLI) on an Octet RED 96e instrument. Briefly, cell culture supernatants were diluted based on qualitative expression level of the variant determined by visual examination of SDS-PAGE gels, 5 μL of cell culture supernatant was diluted into 195 μL of 1×PBST, pH 7.4 for high expressors, 25 μL of cell culture supernatant was diluted into 175 μL of 1×PBST, pH 7.4 for medium expressors and 100 μL of cell culture supernatant was diluted into 100 μL of 1×PBST, pH 7.4 for low expressors for loading onto the sensor tips. The resulting diluted supernatants were then captured on an anti-human Fc sensor (Forte Bio). A baseline was established using 1×PBST (50 mM Potassium Phosphate Buffer+150 mM NaCl+0.05% Tween 20) pH 7.4, and the […] was associated with 50 nM of LRRC15 (Human LRRC15 Protein, His Tag, Acro Biosystems) in 1×PBST pH 7.4 for 120 sec to generate an association curve. In the dissociation phase, the antibody-antigen complex on the sensor was exposed to 1×PBST pH 7.4 or pH 5.4, for 300 sec. Association and dissociation phase curves were examined for the starting ABPC antibody (with no substitutions) and each corresponding antibody variant at pH 5.4 and pH 7.4 to inform on two criteria: a) enhanced dissociation (i.e., higher koff values) at pH 5.4 due to histidine substitution compared to the starting ABPC, (with no substitutions), and b) reduced dissociation at pH 7.4 (i.e., lower koff values) compared to pH 5.4 in the antibody variant itself and with the starting ABPC (with no substitutions).
The methods of Examples 9-10 were applied to RabMAb clone 29F1 (rabbit VH SEQ ID NO: 572 and VL SEQ ID NO: 578; and humanized VH SEQ ID NO: 576 and VL SEQ ID NO: 582).
Consider B12, for which the binding result was “binds”. For the molecule B13, the binding result is “binds”. For B14, the binding result is on record as “binds”. Turning to B15, the binding result is on record as “binds”.

On to B16, for which the binding result is listed as “binds”. Take B17: the binding result is “binds”. The same measure, in the same setting: in the case of B18 it was “binds”; in that of B19, “binds”; in that of B20, “binds”. As for B21, the binding result was “binds”.

For B22, the binding result is on record as “binds”. On to B23, for which the binding result is “binds”. B24: the binding result was “binds”. With B25, the binding result is recorded as “binds”. For the molecule B26, the binding result is “binds”.

B27: the binding result is recorded as “binds”. As to B28, the binding result is “binds”. On to B29, for which the binding result is recorded as “binds”. As for B30, the binding result was “binds”. B31: the binding result is on record as “binds”.

The values above are taken from patent publication US20250352661A1 (MYTHIC THERAPEUTICS, published 2025).
